Assay results published in US20140072613A1 (published 2014).

Columns and labels:
Assay in all cases: cell-based or functional assay
eEF-2K(h) = biological target: T1, eEF-2K(h) (human, UniProt O00418 1-725, limits assumed)
T1 sequence (looked up): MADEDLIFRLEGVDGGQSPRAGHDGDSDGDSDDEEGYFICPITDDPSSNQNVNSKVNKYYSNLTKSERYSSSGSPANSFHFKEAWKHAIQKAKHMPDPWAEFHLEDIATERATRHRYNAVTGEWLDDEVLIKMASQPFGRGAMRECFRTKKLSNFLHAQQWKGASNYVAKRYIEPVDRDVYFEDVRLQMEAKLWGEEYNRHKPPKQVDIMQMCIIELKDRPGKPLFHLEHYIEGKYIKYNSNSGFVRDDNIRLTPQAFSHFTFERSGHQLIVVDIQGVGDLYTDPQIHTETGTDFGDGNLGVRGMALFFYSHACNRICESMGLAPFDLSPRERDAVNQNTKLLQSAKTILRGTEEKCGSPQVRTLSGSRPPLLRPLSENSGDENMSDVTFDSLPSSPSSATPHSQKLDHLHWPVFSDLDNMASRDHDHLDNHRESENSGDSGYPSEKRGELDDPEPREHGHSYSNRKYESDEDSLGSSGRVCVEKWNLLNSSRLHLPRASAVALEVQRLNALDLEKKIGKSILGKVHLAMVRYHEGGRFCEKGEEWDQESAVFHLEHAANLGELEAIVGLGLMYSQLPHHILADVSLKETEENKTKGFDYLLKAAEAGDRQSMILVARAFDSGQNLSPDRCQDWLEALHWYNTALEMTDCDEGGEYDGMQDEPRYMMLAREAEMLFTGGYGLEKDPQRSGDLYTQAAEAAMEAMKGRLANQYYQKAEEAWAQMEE

MAPK1(h) = MAPK1(h) (human, UniProt P28482 1-360, limits assumed)
Chain of MAPK1(h) (P28482 whole entry): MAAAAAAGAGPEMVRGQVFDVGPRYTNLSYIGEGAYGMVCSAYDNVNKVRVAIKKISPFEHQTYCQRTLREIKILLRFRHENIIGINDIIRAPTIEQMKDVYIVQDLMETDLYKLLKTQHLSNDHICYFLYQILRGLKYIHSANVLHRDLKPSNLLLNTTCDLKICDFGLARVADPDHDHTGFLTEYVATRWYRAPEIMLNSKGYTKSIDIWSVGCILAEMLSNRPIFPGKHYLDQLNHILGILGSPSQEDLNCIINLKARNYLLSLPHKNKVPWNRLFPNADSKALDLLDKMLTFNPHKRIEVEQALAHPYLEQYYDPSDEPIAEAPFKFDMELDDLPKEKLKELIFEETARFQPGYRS

TBK1(h) = biological target: T2, TBK1(h) (human, UniProt Q9UHD2 1-729)
T2 sequence (looked up): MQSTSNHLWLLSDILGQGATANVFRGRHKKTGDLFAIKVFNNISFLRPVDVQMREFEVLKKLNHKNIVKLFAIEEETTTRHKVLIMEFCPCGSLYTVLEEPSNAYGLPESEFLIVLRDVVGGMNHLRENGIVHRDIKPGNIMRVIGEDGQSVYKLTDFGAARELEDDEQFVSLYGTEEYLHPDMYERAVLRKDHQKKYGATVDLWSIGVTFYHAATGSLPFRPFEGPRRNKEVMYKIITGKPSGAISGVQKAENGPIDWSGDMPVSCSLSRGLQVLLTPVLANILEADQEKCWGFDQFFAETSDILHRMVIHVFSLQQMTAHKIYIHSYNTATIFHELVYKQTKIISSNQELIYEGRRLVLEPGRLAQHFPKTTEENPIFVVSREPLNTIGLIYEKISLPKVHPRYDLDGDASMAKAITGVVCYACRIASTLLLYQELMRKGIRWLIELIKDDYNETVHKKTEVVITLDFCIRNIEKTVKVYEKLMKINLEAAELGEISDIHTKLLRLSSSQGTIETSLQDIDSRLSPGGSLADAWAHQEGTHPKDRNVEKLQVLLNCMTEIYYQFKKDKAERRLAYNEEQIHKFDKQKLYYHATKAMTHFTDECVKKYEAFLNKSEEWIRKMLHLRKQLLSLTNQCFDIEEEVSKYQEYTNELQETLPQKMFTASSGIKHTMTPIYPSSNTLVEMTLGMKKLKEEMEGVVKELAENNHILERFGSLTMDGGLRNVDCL

PKCµ(h) = biological target: T3, PKCµ(h) (human, UniProt Q15139 1-912)
T3 sequence (looked up): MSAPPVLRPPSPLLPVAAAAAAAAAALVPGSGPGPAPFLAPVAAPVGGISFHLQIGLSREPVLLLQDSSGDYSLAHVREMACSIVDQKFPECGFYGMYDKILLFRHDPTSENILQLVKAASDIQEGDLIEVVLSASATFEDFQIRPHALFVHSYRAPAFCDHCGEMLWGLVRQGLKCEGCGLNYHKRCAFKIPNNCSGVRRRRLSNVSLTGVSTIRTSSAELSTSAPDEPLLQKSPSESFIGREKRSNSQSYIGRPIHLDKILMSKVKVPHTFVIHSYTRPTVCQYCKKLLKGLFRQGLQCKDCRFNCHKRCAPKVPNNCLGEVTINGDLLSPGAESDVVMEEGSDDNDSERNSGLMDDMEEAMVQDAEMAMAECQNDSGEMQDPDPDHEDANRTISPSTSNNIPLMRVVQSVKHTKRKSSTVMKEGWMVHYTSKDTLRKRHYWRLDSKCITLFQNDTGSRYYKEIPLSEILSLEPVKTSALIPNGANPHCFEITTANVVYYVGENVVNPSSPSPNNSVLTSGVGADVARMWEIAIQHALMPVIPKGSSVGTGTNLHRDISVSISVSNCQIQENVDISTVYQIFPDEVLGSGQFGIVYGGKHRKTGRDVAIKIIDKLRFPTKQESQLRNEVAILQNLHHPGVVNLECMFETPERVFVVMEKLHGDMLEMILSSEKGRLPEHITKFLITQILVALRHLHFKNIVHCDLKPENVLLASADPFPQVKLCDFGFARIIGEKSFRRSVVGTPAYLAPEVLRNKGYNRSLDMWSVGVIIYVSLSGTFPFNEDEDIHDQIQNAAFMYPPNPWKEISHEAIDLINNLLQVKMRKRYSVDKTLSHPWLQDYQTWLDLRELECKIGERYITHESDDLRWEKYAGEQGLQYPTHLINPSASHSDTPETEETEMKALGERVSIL

MAPK2(h) = MAPK2(h) (human, UniProt P28482 1-360)
Chain of MAPK2(h) (P28482 whole entry): as the sequence (P28482 whole entry) above

NEK3(h) = biological target: T4, NEK3(h) (human, UniProt P51956 1-506, limits assumed)
T4 sequence (looked up): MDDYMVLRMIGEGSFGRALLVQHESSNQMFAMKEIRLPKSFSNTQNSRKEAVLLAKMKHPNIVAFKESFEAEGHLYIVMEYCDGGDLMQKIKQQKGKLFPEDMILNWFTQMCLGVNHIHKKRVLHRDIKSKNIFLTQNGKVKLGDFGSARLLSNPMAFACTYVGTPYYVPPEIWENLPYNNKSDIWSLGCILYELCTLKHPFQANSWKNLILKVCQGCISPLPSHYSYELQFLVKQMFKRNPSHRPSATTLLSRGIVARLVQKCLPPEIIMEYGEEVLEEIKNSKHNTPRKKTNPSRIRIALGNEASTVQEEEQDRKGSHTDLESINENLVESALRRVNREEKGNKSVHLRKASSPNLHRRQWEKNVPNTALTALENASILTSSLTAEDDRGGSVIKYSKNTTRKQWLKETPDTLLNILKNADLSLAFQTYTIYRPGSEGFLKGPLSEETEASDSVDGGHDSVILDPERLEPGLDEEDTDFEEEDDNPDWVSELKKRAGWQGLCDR

Row | Binder | % activity, 100 µM (eEF-2K(h)) | % activity, 100 µM (MAPK1(h)) | % activity, 100 µM (TBK1(h)) | % activity, 100 µM (PKCµ(h)) | % activity, 100 µM (MAPK2(h)) | % activity, 100 µM (NEK3(h))
1 | FAKLAARLYRKALARQLGVAA [MMI-0300] | 91% | 107% | 37% | 22% | 98% | 92%
2 | KAFAKLAARLYRKALARQLGVAA [MMI-0400] | 43% | 100% | 39% | 14% | 93% | 85%
